US7056701

Target: formaldehyde-fixed human platelets
Assay: inhibition of vWF/botrocetin-induced agglutination of fixed human platelets

IC50	Substance
< 10 nM	HSA-vWF 470-704 C471,474→G
20 nM	HSA-vWF 470-713 C471,474→G
